T1: Human ROBO2 overexpressed on HEK293 cells (human, UniProt Q9HCK4 22-1378)
T1 construct: also called ROBO2 cells; native ROBO2
T1 sequence: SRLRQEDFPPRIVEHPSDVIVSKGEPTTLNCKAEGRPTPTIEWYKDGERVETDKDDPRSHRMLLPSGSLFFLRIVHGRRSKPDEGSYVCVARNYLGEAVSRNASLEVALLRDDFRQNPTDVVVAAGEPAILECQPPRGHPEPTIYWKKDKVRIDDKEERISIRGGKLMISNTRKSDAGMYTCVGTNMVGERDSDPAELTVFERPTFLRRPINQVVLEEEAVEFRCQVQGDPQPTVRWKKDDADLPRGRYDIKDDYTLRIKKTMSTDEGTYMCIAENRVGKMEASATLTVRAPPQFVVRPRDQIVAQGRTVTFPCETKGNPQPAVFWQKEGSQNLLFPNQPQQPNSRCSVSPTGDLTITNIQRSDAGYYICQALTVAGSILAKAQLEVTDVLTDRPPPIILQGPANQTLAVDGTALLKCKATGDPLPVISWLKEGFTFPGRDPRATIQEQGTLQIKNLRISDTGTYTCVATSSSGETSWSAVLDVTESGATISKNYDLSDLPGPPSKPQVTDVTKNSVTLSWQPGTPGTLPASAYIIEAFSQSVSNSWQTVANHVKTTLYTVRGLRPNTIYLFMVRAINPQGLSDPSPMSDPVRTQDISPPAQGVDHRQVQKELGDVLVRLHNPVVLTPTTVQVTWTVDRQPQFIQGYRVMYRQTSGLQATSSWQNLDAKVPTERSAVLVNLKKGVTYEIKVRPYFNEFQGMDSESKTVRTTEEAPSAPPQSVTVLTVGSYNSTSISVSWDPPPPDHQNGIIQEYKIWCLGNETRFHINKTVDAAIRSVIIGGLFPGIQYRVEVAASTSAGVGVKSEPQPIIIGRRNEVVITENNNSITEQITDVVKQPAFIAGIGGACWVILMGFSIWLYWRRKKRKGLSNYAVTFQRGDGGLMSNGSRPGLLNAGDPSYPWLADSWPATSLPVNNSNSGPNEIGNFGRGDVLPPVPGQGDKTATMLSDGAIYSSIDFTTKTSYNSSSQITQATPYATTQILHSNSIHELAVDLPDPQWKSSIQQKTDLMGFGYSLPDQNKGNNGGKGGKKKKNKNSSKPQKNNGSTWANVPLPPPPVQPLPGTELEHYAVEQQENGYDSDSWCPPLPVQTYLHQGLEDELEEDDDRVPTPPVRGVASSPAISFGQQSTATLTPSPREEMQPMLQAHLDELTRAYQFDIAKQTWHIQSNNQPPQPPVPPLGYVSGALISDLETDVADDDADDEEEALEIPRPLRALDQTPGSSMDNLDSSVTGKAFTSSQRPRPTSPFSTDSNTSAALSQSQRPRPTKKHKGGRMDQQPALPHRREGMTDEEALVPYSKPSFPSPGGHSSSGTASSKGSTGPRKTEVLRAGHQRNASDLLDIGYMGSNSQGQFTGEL

T2: Human ROBO1 Ig1-Ig2 (human, UniProt Q9Y6N7 68-257)
T2 construct: recombinant protein; also called ROBO1 Ig1-2; Human ROBO1 Ig 1,2
T2 sequence: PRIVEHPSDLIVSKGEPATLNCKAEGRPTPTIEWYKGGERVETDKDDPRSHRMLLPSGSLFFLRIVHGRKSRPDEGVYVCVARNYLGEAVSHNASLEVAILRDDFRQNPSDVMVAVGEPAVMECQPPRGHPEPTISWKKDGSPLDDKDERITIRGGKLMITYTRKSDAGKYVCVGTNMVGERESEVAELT

T3: Human ROBO2 Ig 1,2 KSR mutant (human, UniProt Q7TPD3 31-220 (mouse entry), limits assumed)
T3 construct: recombinant protein; also called ROBO2-KSR mutant protein; Human ROBO2 Ig1-2 with the RSK mutated to KSR
T3 chain: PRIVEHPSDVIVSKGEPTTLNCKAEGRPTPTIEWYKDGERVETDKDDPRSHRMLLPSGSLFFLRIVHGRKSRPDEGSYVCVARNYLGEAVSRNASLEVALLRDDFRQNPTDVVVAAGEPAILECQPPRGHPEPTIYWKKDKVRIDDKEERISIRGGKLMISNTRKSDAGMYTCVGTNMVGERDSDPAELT

B1: 93H2 (antibody, human IgG1, kappa, V domains shown)
VH: EVQLVQSGAEVKKPGASVKVSCKASGYTFTGYYMHWVRQAPGQGLEWMGWINPNSGATNFPQKFQGRVTMTRDTSITTAYMDLSRLRSDDTAVYYCARESGDDAFDIWGQGTMVTVSS
VL: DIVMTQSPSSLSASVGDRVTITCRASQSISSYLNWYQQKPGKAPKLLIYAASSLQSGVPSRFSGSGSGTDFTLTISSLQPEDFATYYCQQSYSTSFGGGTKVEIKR
notes: also called parental 93H2; 93H2 mAb
B2: Abcs35 (antibody, human IgG1, kappa)
heavy: EVQLVQSGAEVKKPGASVKVSCKASGYTFTGYYMHWVRQAPGQGLEWMGWINPKNGDTEFPQKFQGRVTMTRDTSITTAYMDLSRLRSDDTAVYYCARESGDDAFDIWGQGTMVTVSSASTKGPSVFPLAPSSKSTSGGTAALGCLVKDYFPEPVTVSWNSGALTSGVHTFPAVLQSSGLYSLSSVVTVPSSSLGTQTYICNVNHKPSNTKVDKKVEPKSCDKTHTCPPCPAPEAAGAPSVFLFPPKPKDTLMISRTPEVTCVVVDVSHEDPEVKFNWYVDGVEVHNAKTKPREEQYNSTYRVVSVLTVLHQDWLNGKEYKCKVSNKALPAPIEKTISKAKGQPREPQVYTLPPSREEMTKNQVSLTCLVKGFYPSDIAVEWESNGQPENNYKTTPPVLDSDGSFFLYSKLTVDKSRWQQGNVFSCSVMHEALHNHYTQKSLSLSPGK
light: DIVMTQSPSSLSASVGDRVTITCRASQSISSYLNWYQQKPGKAPKLLIYAASSLQSGVPSRFSGSGSGTDFTLTISSLQPEDFATYYCQQSVGLFFGGGTKVEIKRTVAAPSVFIFPPSDEQLKSGTASVVCLLNNFYPREAKVQWKVDNALQSGNSQESVTEQDSKDSTYSLSSTLTLSKADYEKHKVYACEVTHQGLSSPVTKSFNRGEC
notes: fully human IgG1; VH of Ab96 with VL of Ab123

Columns and labels:
[1] = molecular target: T1, Human ROBO2 overexpressed on HEK293 …; test: flow cytometry, Geo MFI ROBO2/ROBO1 HEK293 cells, 0.1 µg/ml
Protocol: Binding of the antibodies was detected using a secondary fluorochrome conjugated anti-human IgG F(ab′)₂ antibody and samples were analyzed on a Fortessa cytometer (BD Biosciences). The fold ROBO2 selectivity was calculated as the geometric mean fluorescence intensity (Geo MFI) with ROBO2 cells/Geo MFI with ROBO1 cells. A fold change higher than 3 was considered to be ROBO2 specific (Table 2, Fold Selectivity). Some affinity matured clones had increased ROBO1 reactivity, for example Abcs 55, CTI-R2-10 and CTIR2-13.
HTRF assays were run with 5 nM d2-labeled SLIT2-N and antibodies were added at 1 nM. […] Antibodies derived from chain (Abcs series) or CDR shuffling (CTIR-2 series) were evaluated in 11-point, 5-fold dilution series with a top concentration of 1500 nM, N.T. = not tested; ^cFold selectivity was calculated as Geometric Mean Fluorescent Intensity (Geo MFI) of ROBO2/Geo MFI of ROBO1 binding. […] Outcomes: results are listed in order of assays listed in the table (left to right), I.A. = Improved Affinity

Human ROBO1 Ig1-Ig2 = molecular target: T2, Human ROBO1 Ig1-Ig2; test: Octet Red BLI, Abcs35 captured on AHC sensors, ROBO proteins in solution
Source text: (§1) Octet Red AHC (Anti-Human IgG FC) Sensors were loaded with Abcs35. The loaded sensors were then exposed to Human ROBO2 Ig1-2, Rat ROBO2 Ig 1-2, Human ROBO2 Ig1-2 with the RSK mutated to KSR as in ROBO1, or ROBO1 Ig1-2 then the sensors were moved to PBS only, lacking any ROBO1 or 2 proteins. The arrows indicate curves for each of the ROBO proteins tested.
(§2) Based upon the crystal structure described above, the following experiments were done to confirm the epitope specificity of 93H2 and/or affinity matured clones Abcs35. Using Octet Red, epitope specificity was confirmed biochemically. Abcs35, at 10 μg/ml, was captured on AHC sensors for 60 seconds. Recombinant human ROBO2 Ig1-Ig2, rat […], human ROBO2 containing the ROBO1 KSR sequence (ROBO2-KSR mutant), and human ROBO1 Ig1-Ig2, prepared at 100 nM, were used to interact with captured Abcs35. Association time was 100 seconds then dissociation was followed for 20 seconds. Abcs35 specifically bound human and rat ROBO2 but not human ROBO1 or the ROBO2-KSR mutant protein (FIG. 2).

[2] = molecular target: T3, Human ROBO2 Ig 1,2 KSR mutant; test: as above
Source text: as §1, §2

| Binder | Fold Selectivity for ROBO2/ROBO1 [1] [fold] | binding result (Human ROBO1 Ig1-Ig2) | binding result [2] |
| --- | --- | --- | --- |
| B1 | > 100 | – | – |
| B2 | – | no binding | no binding |

Reference: patent US20200157212A1 (Pfizer, published 2020)
